The record followed here is the DeepSol protein solubility set.

A short description of this series: soluble on expression in E. coli; label from the status in PepcDB or PDB records.
Consider “MGSDKIHHHHHHMAVRKAMKYSLGPVLWYWPKETLEEFYQQAATSSADVIYLGEAVCSKRRATKVGDWLEMAKSLAGSGKQIVLSTLALVQASSELGELKRYVENGEFLIEASDLGVVNMCAERKLPFVAGHALNCYNAVTLKILLKQGMMRWCMPVELSRDWLVNLLNQCDELGIRNQFEVEVLSYGHLPLAYSARCFTARSEDRPKDECETCCIKYPNGRNVLSQENQQVFVLNGIQTMSGYVYNLGNELASMQGLVDVVRLSPQGTDTFAMLDAFRANENGAAPLPLTANSDCNGYWRRLAGLELQA”, for which the “soluble on expression in E. coli” value was “not soluble”.

For “MRNMKSTSHESESGKLLSISSCRPREMVLQRYSLGMTVTADRHLADKREEFAVEDISTGIFASGYGQVGDGRSFSFHIEHRSLVVEIYRPRVAGPVPQAEDVVAMAVRGLVDIDLTDERSLAAAVRDSVASAAPVSR”, the “soluble on expression in E. coli” value is reported as “not soluble”.

Turning to “MGSDKIHHHHHHMYRKDLDHYLKQRLPKAVFLYGEFDFFIHYYIQTISALFKCDNPDIETSLFYASDYEKSQIATLLEQDSLFGGSSLVVLKLDFALHKKFKENDINLFLKALERPSHNRLIIGLYNAKSDTTKYKYTSDAIVKFFQKSPLKDEAICARFFIPKTWESLKFLQERANFLHLDISGHLLNALFEINNEDLGVSFNDLDKLAVLNAPITLEDIQELSSNAGDMDLQKLILGLFLKKSALDIYDYLLKEGKKDADILRGLERYFYQLFLFFAHIKTTGLMDAKEVLGYAPPKEIAENYAKNALRLKEAGYKRVFEIFRLWHIQSMQGQKELGFLYLTSIQKIINP”, the “soluble on expression in E. coli” value is “not soluble”.

On to “SLFQIGDNIVYPMHGAGIIEAIEEKEFLEEKQQYYVIRMSISNMTVMIPTSKILSSNIRPVTDILALKHIMHIFQHGESDRLLPWKQRYKINTDKIKTGEIQEGAEVVRDLMRMKKEKALNASEKKMLDNAYEFLISELEVIKGITEKQIKSFG”, for which the “soluble on expression in E. coli” value is on record as “soluble”.

Consider “MGHHHHHHSHMQVTITLTSPIIREENMREGDVTSGMVKDPPDVLDRQKCLDALAALRHAKWFQARANGLQSCVIIIRILRDLCQRVPTWSDFPSWAMELLVEKAISSASSPQSPGDALRRVFECISSGIILKGSPGLLDPCEKDPFDTLATMTDQQREDITSSAQFALRLLAFRQIHKVLGMDPLPQMSQRFNIHNNRKRRRDSDGVDGFEAEGKKDKKDYDNF”, for which the “soluble on expression in E. coli” value is “not soluble”.

With “GPGSMKIGVVLGSGGHTSEMLRAITEIPLSYWLDTRPFYVVSATDPHSASLASQLEQQRFERRVVVYTIPRAREVGQSYLMSIITTIRATLACFRFVCTEKPDVLLTNGPGVCVPVIAAAVCVASCAPWWYGRPAIVYMESFTCVSHLSLTGSLLAPWLADVFTVHWRALERAVARRRRRGTLVYVGSETARVTDGAPHRLRSLAAEQEAYALVTVGSTKFSSLVQAVVQPGVCATLHQRFGIKRLYVQHGTAEVVAPPEATLLPALPMAAGADASHPTQQWSCGGLLVEAFPYRPCLDAVIRGATLVITHAGAGTILEGLQAQRPLVVVPNRQLMSDHQLDLAEALANGGFLFCVQVAELAERLPLLDLTTLRPHGGMDAAQLQEALRLVLTGHSASGERAKAD”, the “soluble on expression in E. coli” value is given as “not soluble”.

Regarding “MDWKKIYEDRTCTADEAVKSIKSGDRVLFAHCVAEPPVLVEAMVANAAAYKNVTVSHMVTLGKGEYSKPEYKENFTFEGWFTSPSTRGSIAEGHGQFVPVFFHEVPSLIRKDIFHVDVFMVMVSPPDHNGFCCVGVSSDYTMQAIKSAKIVLAEVNDQVPVVYGDTFVHVSEIDKFVETSHPLPEIGLPKIGEVEAAIGKHCASLIEDGSTLQLGIGAIPDAVLSQLKDKKHLGIHSEMISDGVVDLYEAGVIDCSQKSIDKGKMAITFLMGTKRLYDFAANNPKVELKPVDYINHPSVVAQCSKMVCINACLQVDFMGQIVSDSIGTKQFSGVGGQVDFVRGASMSIDGKGKAIIAMPSVAKKKDGSMISKIVPFIDHGAAVTTSRNDADYVVTEYGIAEMKGKSLQDRARALINIAHPDFKDELKAEFEKRFNAAFSAWSHPQFEK”, the “soluble on expression in E. coli” value is “soluble”.

Take “SGILFMSKVGLRGDRRSEGDEVLDPLRQALDSSMQSHNLYQHPQHLAFHVSAPVASTVQQASGLLGPLPHLSSFALQPAHSLLPPLGSHGAGFQENGAKAES”: the “soluble on expression in E. coli” value is recorded as “soluble”.

Regarding “MSLTYDLIITDSHVMTPNGMVEKNIVIDSGKIKLITNDTPTCDKKIKGSGLVSIPGVIDPHVHYGVYSPIDQAAKTESHAAAIGGVTTMIRMFRLEGSYKDSLQKHLLASQNSHYIDYTIHASIFDTSQIDEMKYCTENQILSFKIYMNLGGDVGHVYMEMNPGEEKLISSHVNVTNELVEKIVKRAGELKCPVLVHAEDYQECACAMKTEQEKKHDGLNSWSESRSPDFEAKSIKTICEYGRKYDCVIYFVHIGSKLALEQIQIEKNNGTKIFVETCPHYLTLSHETQDGYLAKVMPPIRTKNDVEYVWESLQKNHINTIGTDHVANQLKLKLGGDDVWGALAGFPGIGTSLPILLSEGINKNRITLDQLVNLTSANTSKIFGLSDKGNISTGYEGHHHHHH”, the “soluble on expression in E. coli” value is reported as “soluble”.

With “MEQEFFFPPPKKSDGPVVACVVEKKGDGTRTSMRQNEIYAYSAQIRTGDGCMVMPKIHWNSFEPSDWVSCTLEYVNKANQIKEKEMLEISKVPAENFDRFGMPPTRFENGIVQIKTLFVACPEFIKNRETRNAYGSYKKLFILNIGLGFVSTRRTADGNLAEKVKNGDVYTGIFEFRAKDNGAINFNHRGRVRDETNHVIERDAMWELTKTSSVAATDVQKKQMKEAIEQLRKDAEQFEREFKDSQSRPVAPMLPPNEISENRKEINLGLALPSRHSQPSIRTVDVVTTTPAQMMPTASSFRIPFAQVSKAPVVAPSSQLQQQQQQPCSSNQTARIGNFLERDQVRGNLLGVPLSSSTPRGSPELLRRREVTADDGNITSNTAVMLRDNNANPMNRRRPS”, the “soluble on expression in E. coli” value is “not soluble”.

For the sequence “GPLGSLYAIVLYDFKAEKADELTTYVGENLFICAHHNCEWFIAKPIGRLGGPGLVPVGFVSIIDIATGYATGNDVIEDIKSVNLPTVQEWKSNIARYKASNISLGSVE”, the “soluble on expression in E. coli” value is given as “soluble”.

As for “MRFLHTADWQLGMTRHFLNGEAQPRYSASRREAVASLGEIAKRTGAEFVVVSGDVFEHNQLAPRDVSQSLEAMRAIGVPVYLLPGNHDPLDASSVYTSALFVAERPDNVVVLDRAGVHEVRPGVQIVAAPWRSKAPTSDLIGDVLADLPADGVTRVLVGHGGVDILDPDKNKPSLIRMAAVEDALARGAVHYVALGDKHSRTEVGGSGRVWYSGSPEVTNYDDIESDPGHVLVVDIDENDARRAVRVESEKVGRWRFVTLRRSVDTDRDIADLDLNLDLLDDKERTVVRLALTGSLTVTDKAKLDECLDRYARLFAALTTWERLEHHHHHH”, the “soluble on expression in E. coli” value is recorded as “not soluble”.

As for “MGSDKIHHHHHHMNILVDLTQIPIQKVGVGVYAKETFKFPNEDANELFFLLQDDDNDLRSTFLKSKIILVKSKFFRFFFCRFLLEQFYIPFLCYKYKINILHSLHYSFPIFLFKVKRIVTIHDLTFFIHPSVHTFIKRYYFRLFIKLACRYADRLICVSESTKKDLERICGRRSVSIDVIPLSCSPKMQVGEQELELVKKKFGVVSQYMLFIGTLEPRKNILNLINAFYKFSQKNRDYSLVIIGKKGWFYESIFKLVEELHLERSVVFTGFVTTKEKFILLSGAHSFIYPSIYEGFGLPVLEAITYGIPTITSKLSSLPEVAGNAALYINPYDVQSISDAIESVNCDEETRRKLIKNSEKQRLKYSWKKTANLTYSLYNRCGSI”, the “soluble on expression in E. coli” value is recorded as “not soluble”.

“MKKLTFEQLRSVQMSILDRVHLFCERHDLEYSLAGGTLLGAIRHKGYIPWDDDIDIMMPREDYEYLLQNFAKEYPDFTFFNLDTKHNPYPFLFSKLSLNDSVISNGRIKGVGINIDIFPIDSLGKEKGAAKLRFSLMKAINFFARIQRSRHDRANPIVNIAFRLFQKCLKLLPKKWFLSAIKGLCSTCSVNDDGYAVSIGSSYLAKEFTESSLYHDYTSCPFEDRQYKCIARYDDYLSMIYGDYMQLPKEQDRENHDNVGFIKEHLLPMLEHHHHHH”: the “soluble on expression in E. coli” value is “not soluble”.

For “MLDPARSYDLIGDVHGCALTLEHLLDRLGYHKQAGVWRHPSRMAVFLGDIIDRGPRIRESLHIVHDMVEAGQALCIMGNHEFNALGWSTPAAEGSGKQFVREHTPRHARLIHETLTQFEQHPGDWHDFLQWFYELPLFVDAGRFRVVHACWDAGLIAPLRQQYPNGCIDREFLQSAAVPDSFACTAFDRLLRGTDMRLPHGLTMTSGDGLTRAFFRTKFWEDDPQTYGDIVFQPDALPEPVARTPLSPAEKNSLLRYGAEEPMLFVGHYWRSGKPAPIRPNLACLDYSAVLYGKLAAYRLDQETRLDPNKFVWVDVERPEVVRLEHHHHHH”, the “soluble on expression in E. coli” value was “not soluble”.

Regarding “MASDESMVPYYQWNFAPVVRGIARTQARVEVLRDGYTVSNELVPSGPFELANLPLGGGSGELKVIIHESDGTKQVFTVPYDTPAVALRKG”, the “soluble on expression in E. coli” value is listed as “soluble”.

As to “MKHITIIGAGLAGTLCGLYLARRGYEVELFESRPDIRNSPTDYGRSINLALSCRGITALKAMNLLSEVNKIMVPMRARAIHEANGEVHYQPFGRYIDEYINAISRSDLNALLLNKAELCPNIKLHFNMKLHSLDIHNKKIKFENKNGDFVEASYHRLIGADGAPSHVRDMLKNEGIVSASRDFLSHGYKELSISKKHTKGMAREHLHLWPRDSFMLLGNPNPDDSITGSLFLANEGKDSFAELNNEEKLHLFFKTQFPDAYAAMPNLVQEFFGNPTGHLSTIQCSPWYYKDECLLIGDAAHGIIPFFGQGMNSAFEDCRILDELLDEYQDDWSRVNPLFYEQRKVNTDAIAKMSMDNYHEIHSDIRNPKFILQKQIERELMLRYPEHYVSMHVLVMFTNTPYAKAMAIGELQSGLLEQICFPITDIKELNWQEVEKLLGIYDKKLAKIILEHHHHHH”, the “soluble on expression in E. coli” value was “soluble”.

For “MNNVLLEVKDLETSLKINNEWLATVENISFELSKGEVLGIVGESGCGKSILSKSIIKLLPEKISKLSNGEVIFDGKRIDTLNEKQLLDIRGNDIAMIFQEPMTALNPVFTIKNQLVESIKSHKKISKKEANKLAKDLLKKVGIARQDEILNSYPHQLSGGMRQRVMIAMAISCSPKLLIADEPTTALDVTIQAQILDLLKELQKETQMAIMMITHDLSVVAEFCDKVLVMYAGQIVEFGGIKEILHNPKHPYTQKLLSTIPKLKEEQKRLETIEGIVPSIQAFHVNKCRFANRCNKKLDICNNQSPKMHVCEDVIVRCHLYKNEYKEI”, the “soluble on expression in E. coli” value is “not soluble”.

In the case of “MRWVRFFHEVGLEDVPLVGGKNASLGEMIRELSPLGVRVPEGFATTSEAYWHFLEHNGLKEAIARELGELDPEDPKALQRVSRRLRNLILKGEYPQDLREEILEAYRRLSEEAVEEEIPVAVRSSATAEDLLTASFAGQQESFLYVQGEADLLLHVKRAMASLFTARAISYRAHMGFDHLKVALSVGVQRMVRADDAASGVIFTLDPDTGHRGFVYLTAIYGLGENIVQGRVIPDGYYVHKETFREGFRAVVYRRLGAKELTLAFDPREGRLKNRPTPLYLRNRFALRDEEVLLLADWAMKIEDHYSKKRGSPTPMDIEWAKDGPTGELFVLQARPETVHSQKTPVLRVFRLLKRGEVLAEGLAVGEAIAMGRARVLKDPKEMDRFQEGEVLVTETTNPDWEPIMKKAAAIVTERGGRTSHAAIVARELGVPAVVGAVGATRSVPEGEEVTVSCAEGERGVVYRGRLPFEVEEIRPETLPRTRTRILVNVGTPEEALRTSLLPTDGVGLLRMEFVFASHVRVHPLALTRFETLPKEVRRQVEEVTEAYPDKRAYFVETLSQGIGLIAAAFYPRPVLLRFSDFKTNEYARLLGGHLFEPKEENPMLGWRGASRYYHPDYKEGFLLEVAAVRRVREEMGLKNLMVMVPFCRTPEEGEKVLEVMAEGGLRREEGGLEVHVMAEIPSNVLEAEAFAELFDGFSIGSNDLTQLALGLDRDSERVAHLFDERRETVKRLAAMLIEKAHAKGKKVGICGQAPSDYPEFAAFLVERGIDSLSLNPDALLRTVREVAEVERRLGIG”, the “soluble on expression in E. coli” value was “soluble”.
